Substitutions are numbered along the chain they refer to.
B1: 196 (protein)
chain: STAIAQEGAAPAAILHPEKWPRPATQRLIDPAVEKRVDALLKQLSVEEKVGQVIQGDIGTITPEDLRKYPLGSILAGGDSGPNGDDRAPPKEWLDLADAFYRVSLEKRPGHTPIPVLFGIDAVHGHGNIGSATIFPHNIALGMTRDPELLRRIGEVTAEEMAATGIDWTFAPALSVVRDDRWGRTYEGFSEDPEIVASYSAAIVEGVQGKFGSKDFMAPGRIVASAKHFLADGGTDQGRDQGDARISEDELIRIHNAGYPPAIDAGVLTVMASFSSWQGIKHHGHKQLLTDVLKGQMGFNGFIVGDWNAHDQVPGCTKFNCPTSLIAGLDMYMAADSWKQLYENTLAQVKDGTIPMARLDDAVRRILRVKVLAGLFEKPAPKDRPGLPGLETLGSPEHRAVGREAVRKSLVLLKNDKGTLPLSPKARVLVAGDGADNIGKQSGGWTISWQGTGNRNDEFPGATSILGGIRDAVADAGGSVEFDVAGQYKTKPDVAIVVFGEEPYAEFQGDVETLEYQPDQKQDLALLKKLKDQGIPVVAVFLSGRPMWVNPELNASDAFVAAWLPGTEGPGVADVLFTDKAGKVQHDFAGKLSYSWPRTAAQTPVNRGDADYNPLFAYGYGLTYKDKSKVGTLPEESGVPAEARQNAGIYFRAGALRLPGRFL
B2: 86 (protein)
chain: B1 chain with D79N, E159V, P219M, P570G, P604T
B3: 201 (protein)
chain: B1 chain with A539V, P570G, P604T
B4: 102 (protein)
chain: B1 chain with D79N, M143A, E159V, A162T, S198A, S225C, P570G, A573S, P604T
B5: 204 (protein)
chain: B1 chain with Q26R, P570G
B6: 205 (protein)
chain: B1 chain with S479A, P570G, P604T
B7: 207 (protein)
chain: B1 chain with P570G
B8: 200 (protein)
chain: B1 chain with P570G, P604T
B9: 198 (protein)
chain: B1 chain with S213P, A485P, P570G, P604T
B10: 95 (protein)
chain: B1 chain with D79N, M143A, E159Q, F211Y, P570G, P604T
B11: 90 (protein)
chain: B1 chain with M143A, E159V, S198A, F211Y, P570G, P604T
B12: 88 (protein)
chain: B1 chain with M143A, E159V, S198A, P570G, P604T
B13: 209 (protein)
chain: B1 chain with M331L, A485P, P570G, P604T
B14: 85 (protein)
chain: B1 chain with D85N, M143A, E159V, S198A, F211Y, P570G, P604T
B15: 203 (protein)
chain: B1 chain with A485P, P570G, P604T
B16: 197 (protein)
chain: B1 chain with A485P, P570G
B17: 92 (protein)
chain: B1 chain with D79N, E159V, S198A, P570G, P604T
B18: 87 (protein)
chain: B1 chain with E159V, F211Y, P570G, P604T
B19: 101 (protein)
chain: B1 chain with D79N, M143A, E159V, A162T, S198A, I222A, S225C, P570G, P604T
B20: 98 (protein)
chain: B1 chain with T2A, D79N, M143A, E159V, A162T, S198A, A201P, I222A, P570G, P604T
B21: 93 (protein)
chain: B1 chain with D79N, M143A, E159V, S198A, F211Y, P570G, P604T
B22: 84 (protein)
chain: B1 chain with D79N, N128K, M143A, E159V, S198A, I222A, P570G, P604T
B23: 82 (protein)
chain: B1 chain with D79N, N128K, M143A, D146S, E159V, S198A, I222A, S225C, P570G, P604T
B24: 208 (protein)
chain: B1 chain with G59R, P570G, P604T
B25: 206 (protein)
chain: B1 chain with S213P, P570G, P604T
B26: 96 (protein)
chain: B1 chain with D79N, S198A, F211Y, P570G, P604T
B27: 83 (protein)
chain: B1 chain with D79N, M143A, E159V, S198A, I222A, S225C, A525T, P570G, P604T
B28: 99 (protein)
chain: B1 chain with D79N, N128K, M143A, E159V, S198A, I222S, S225C, P570G, P604T
B29: 97 (protein)
chain: B1 chain with D79N, E159V, S198A, F211Y, P570G, P604T, E642A, A643P
B30: 91 (protein)
chain: B1 chain with E159V, S198A, P570G, P604T
B31: 199 (protein)
chain: B1 chain with S213P, G220V, P570G, P604T
B32: 89 (protein)
chain: B1 chain with M143A, E159V, P219V, P570G, P604T
B33: 202 (protein)
chain: B1 chain with P604T
B34: 103 (protein)
chain: STAIAQEGAAPAAILHPEKWPRPATQRLIDPAVEKRVDALLKQLSVEEKVGQVIQGDIGTITPEDLRKYPLGSILAGGNSGPNGDDRAPPKEWLDLADAFYRVSLEKRPGHTPIPVLFGIDAVHGHGNIGSATIFPHNIALGATRDPELLRRIGEVTAVEMAATGIDWTFAPALSVVRDDRWGRTYEGFSEDPEIVAAYSAAIVEGVQGKFGSKDFMAPGRIVASAKHFLADGGTDQGRDQGDARISEDELIRIHNAGYPPAIDAGVLTVMASFSSWQGIKHHGHKQLLTDVLKGQMGFNGFIVGDWNAHDQVPGCTKFNCPTSLIAGLDMYMAADSWKQLYENTLAQVKDGTIPMARLDDAVRRILRVKVLAGLFEKPAPKDRPGLPGLETLGSPEHRAVGREAVRKSLVLLKNDKGTLPLSPKARVLVAGDGADNIGKQSGGWTISWQGTGNRNDEFPGATSILGGIRDAVADAGGSVEFDVAGQYKTKPDVAIVVFGEEPYAEFQGDVETLEYQPDQKQDLALLKKLKDQGIPVVAVFLSGRPMWVNPELNASDAFVAAWLPGTEGGGVADVLFTDKAGKVQHDFAGKLSYSWPRTAAQTTVNRGDADYNPLFAYGYGLTYKDKSKVGTLPEESGVPAEARQN

assay: High throughput cellobiose assay: fold improvement in cellobiase activity of CelA variants over a control enzyme (Tables 2A-2D, 3, 5, 6, 7); assay type: biochemical; settings: 3.3 g/l cellobiose, 55° C. and pH 6.0

| Molecule | Fold improvement over Control Variant No. 5 from Table 2A |
| --- | --- |
| B1 | ++ (++ = 1.1 to 6 fold improvement over control Variant No. 2) |
| B2 | ++ (++ = 1.1 to 6 fold improvement over control Variant No. 2) |
| B3 | ++ (++ = 1.1 to 6 fold improvement over control Variant No. 2) |
| B4 | ++ (++ = 1.1 to 6 fold improvement over control Variant No. 2) |
| B5 | ++ (++ = 1.1 to 6 fold improvement over control Variant No. 2) |
| B6 | ++ (++ = 1.1 to 6 fold improvement over control Variant No. 2) |
| B7 | ++ (++ = 1.1 to 6 fold improvement over control Variant No. 2) |
| B8 | +++ (+++ = 6 to 13 fold improvement over control Variant No. 2) |
| B9 | ++ (++ = 1.1 to 6 fold improvement over control Variant No. 2) |
| B10 | ++ (++ = 1.1 to 6 fold improvement over control Variant No. 2) |
| B11 | ++ (++ = 1.1 to 6 fold improvement over control Variant No. 2) |
| B12 | ++ (++ = 1.1 to 6 fold improvement over control Variant No. 2) |
| B13 | ++ (++ = 1.1 to 6 fold improvement over control Variant No. 2) |
| B14 | ++ (++ = 1.1 to 6 fold improvement over control Variant No. 2) |
| B15 | ++ (++ = 1.1 to 6 fold improvement over control Variant No. 2) |
| B16 | ++ (++ = 1.1 to 6 fold improvement over control Variant No. 2) |
| B17 | ++ (++ = 1.1 to 6 fold improvement over control Variant No. 2) |

| Molecule | Fold improvement over Control Variant No. 5 from Table 2A |
| --- | --- |
| B18 | +++ (+++ = 6 to 13 fold improvement over control Variant No. 2) |
| B19 | +++ (+++ = 6 to 13 fold improvement over control Variant No. 2) |
| B20 | +++ (+++ = 6 to 13 fold improvement over control Variant No. 2) |
| B21 | ++ (++ = 1.1 to 6 fold improvement over control Variant No. 2) |
| B22 | +++ (+++ = 6 to 13 fold improvement over control Variant No. 2) |
| B23 | +++ (+++ = 6 to 13 fold improvement over control Variant No. 2) |
| B24 | ++ (++ = 1.1 to 6 fold improvement over control Variant No. 2) |
| B25 | ++ (++ = 1.1 to 6 fold improvement over control Variant No. 2) |
| B26 | ++ (++ = 1.1 to 6 fold improvement over control Variant No. 2) |
| B27 | +++ (+++ = 6 to 13 fold improvement over control Variant No. 2) |
| B28 | +++ (+++ = 6 to 13 fold improvement over control Variant No. 2) |
| B29 | +++ (+++ = 6 to 13 fold improvement over control Variant No. 2) |
| B30 | +++ (+++ = 6 to 13 fold improvement over control Variant No. 2) |
| B31 | ++ (++ = 1.1 to 6 fold improvement over control Variant No. 2) |
| B32 | ++ (++ = 1.1 to 6 fold improvement over control Variant No. 2) |
| B33 | ++ (++ = 1.1 to 6 fold improvement over control Variant No. 2) |
| B34 | ++ (++ = 1.1 to 6 fold improvement over control Variant No. 2) |
